Measurements from paper PMC2868043, “The Yeast Cell Fusion Protein Prm1p Requires Covalent Dimerization to Promote Membrane Fusion” (PLoS ONE, 2010).

Key:
[1] = biological target: the molecule itself; assay: non-reducing SDS-PAGE and Western blot; whole cell lysate, reducing agent omitted from the sample buffer; cells induced with 10 µg/ml α-factor for 90 min (GFP alleles, anti-GFP blot) or with galactose (HA-PRM1, anti-HA blot); shows only SDS-resistant covalent dimers
[2] = biological target: the molecule itself; assay: non-reducing SDS-PAGE + affinity purification with mass spectrometry; Prm1p purified from mating cells under native conditions by α-myc immunoprecipitation, eluted with 2% SDS, 10% bis-Tris gel, colloidal blue staining; unreduced sample analysed by mass spectrometry (data not shown)

B1: Prm1-GFP (natural protein, S. cerevisiae, UniProt P53835 1-661, looked up)
chain: MSGFKCYLQLGDRLSQIWLNKYTLVLLLAMLKLLFFSKSIQHAIEVSETYILSNCYSIDSLYSKMTDNTPHYLGIMGNYLIEKGMEETVKATLETLSLIVYASEGLVNFAIDLYLGTYACLIVSAVDGTVDVATNITEKLISLVNDTVSSVANELDTGLNDISKIINKVIKAASKVENFFTGDDDDSNMTSSIKSVNLTISALHNLYIPSSINDKLEELSAKTPDFAQVKNTTKNLISVPFNEVRKNIKAVNASNIIGDTSVLYVPPVSLDNSTGICSSNQSEILAFYSILGHVLKIATVVCITVLICFAVGAMAPVAWNEIKLWRRLCGMRDHYMLSRQDSYTSFSSENTHELKDPFRDPPIQNGQYDVIASYQQCFQTWNTRIAGWMTNLVTFGKSPENIDPKTKQKIEWVVAYMTSERALCVLGIGLLGILVCICQFVMIALLKHKISHSLTSNDGDGVQNLLKSSTAVDIENQMSLWSVQTNKYINTTETNINQEVFGWINTTTLSVNNTVATMISDIDTTLADVFNGTLLYNPMKTVVGCAIENKLYTIEKAMTWIHDKAQLHIPRINGTQIKQALAKQTDNSTIPTASSTSAATENLLENLVNDMREGLLKILRAYHRITLGELTVALVILAVWLVQLPIALVILRLRLRKATFD
notes: Prm1p, mating-specific multipass membrane protein of S. cerevisiae; monomer 73 kD; Glycosylated (sugar modifications); Forms a disulfide-linked homodimer; also called Prm1p; source: S. cerevisiae (W303 derivatives), PRM1 promoter, induced with α-factor or by mating; in whole cell lysate or Triton X-100 solubilised membranes; not shown: GFP, C-terminal, kept
stoichiometry N [1]: 2

B2: Prm1-myc (natural protein, S. cerevisiae, UniProt P53835 1-661, looked up)
chain: MSGFKCYLQLGDRLSQIWLNKYTLVLLLAMLKLLFFSKSIQHAIEVSETYILSNCYSIDSLYSKMTDNTPHYLGIMGNYLIEKGMEETVKATLETLSLIVYASEGLVNFAIDLYLGTYACLIVSAVDGTVDVATNITEKLISLVNDTVSSVANELDTGLNDISKIINKVIKAASKVENFFTGDDDDSNMTSSIKSVNLTISALHNLYIPSSINDKLEELSAKTPDFAQVKNTTKNLISVPFNEVRKNIKAVNASNIIGDTSVLYVPPVSLDNSTGICSSNQSEILAFYSILGHVLKIATVVCITVLICFAVGAMAPVAWNEIKLWRRLCGMRDHYMLSRQDSYTSFSSENTHELKDPFRDPPIQNGQYDVIASYQQCFQTWNTRIAGWMTNLVTFGKSPENIDPKTKQKIEWVVAYMTSERALCVLGIGLLGILVCICQFVMIALLKHKISHSLTSNDGDGVQNLLKSSTAVDIENQMSLWSVQTNKYINTTETNINQEVFGWINTTTLSVNNTVATMISDIDTTLADVFNGTLLYNPMKTVVGCAIENKLYTIEKAMTWIHDKAQLHIPRINGTQIKQALAKQTDNSTIPTASSTSAATENLLENLVNDMREGLLKILRAYHRITLGELTVALVILAVWLVQLPIALVILRLRLRKATFD
notes: Prm1p, mating-specific multipass membrane protein of S. cerevisiae; Made by replacing the GFP of the PRM1-GFP plasmid with the tag of a PRM1-myc strain, so the tag is probably C-terminal; also called Prm1p; source: S. cerevisiae (W303 derivatives), PRM1 promoter, mating cells; in Triton X-100 solubilised membranes, or purified by α-myc immunoprecipitation
stoichiometry N [2]: 2

B3: HA-Prm1p (natural protein, S. cerevisiae, UniProt P53835 1-661, looked up)
chain: MSGFKCYLQLGDRLSQIWLNKYTLVLLLAMLKLLFFSKSIQHAIEVSETYILSNCYSIDSLYSKMTDNTPHYLGIMGNYLIEKGMEETVKATLETLSLIVYASEGLVNFAIDLYLGTYACLIVSAVDGTVDVATNITEKLISLVNDTVSSVANELDTGLNDISKIINKVIKAASKVENFFTGDDDDSNMTSSIKSVNLTISALHNLYIPSSINDKLEELSAKTPDFAQVKNTTKNLISVPFNEVRKNIKAVNASNIIGDTSVLYVPPVSLDNSTGICSSNQSEILAFYSILGHVLKIATVVCITVLICFAVGAMAPVAWNEIKLWRRLCGMRDHYMLSRQDSYTSFSSENTHELKDPFRDPPIQNGQYDVIASYQQCFQTWNTRIAGWMTNLVTFGKSPENIDPKTKQKIEWVVAYMTSERALCVLGIGLLGILVCICQFVMIALLKHKISHSLTSNDGDGVQNLLKSSTAVDIENQMSLWSVQTNKYINTTETNINQEVFGWINTTTLSVNNTVATMISDIDTTLADVFNGTLLYNPMKTVVGCAIENKLYTIEKAMTWIHDKAQLHIPRINGTQIKQALAKQTDNSTIPTASSTSAATENLLENLVNDMREGLLKILRAYHRITLGELTVALVILAVWLVQLPIALVILRLRLRKATFD
notes: Prm1p, S. cerevisiae, under control of the GAL1 promoter; also called GALPRO-HA-PRM1; source: S. cerevisiae (W303 derivative), genomic GAL1 promoter fusion, galactose induced; in whole cell lysate
stoichiometry N [1]: 2
